Measured values taken from patent US20070184488.

Key:
[1] = biological target: T1, EVNFAAEF (SEQ ID NO: 259)
T1 chain: EVNFAAEF

[2] = biological target: T2, EVNFAVEF (SEQ ID NO: 261)
T2 chain: EVNFAVEF

[3] = biological target: T3, EVNFEAEF (SEQ ID NO: 260)
T3 chain: EVNFEAEF

[4] = biological target: T4, EVNFEVEF (SEQ ID NO: 262)
T4 chain: EVNFEVEF

[5] = biological target: T5, EVNLAAEF (SEQ ID NO: 258)
T5 chain: EVNLAAEF

[6] = biological target: T6, EVNLDAEF, Swedish mutant APP 8-mer peptide (SEQ ID NO: 257)
T6 chain: EVNLDAEF

[7] = biological target: T7, P1′ peptide library component with P1′=Glu
T7 chain: EVNLEAEF

[8] = biological target: T8, P1′ peptide library component with P1′=Gly
T8 chain: EVNLGAEF

[9] = biological target: T9, P1′ peptide library component with P1′=Pro
T9 chain: EVNLPAEF

B1: β-secretase (protein)
chain: ETDEEPEEPGRRGSFVEMVDNLRGKSGQGYYVEMTVGSPPQTLNILVDTGSSNFAVGAAPHPFLHRYYQRQLSSTYRDLRKGVYVPYTQGKWEGELGTDLVSIPHGPNVTVRANIAAITESDKFFINGSNWEGILGLAYAEIARPDDSLEPFFDSLVKQTHVPNLFSLQLCGAGFPLNQSEVLASVGGSMIIGGIDHSLYTGSLWYTPIRREWYYEVIIVRVEINGQDLKMDCKEYNYDKSIVDSGTTNLRLPKKVFEAAVKSIKAASSTEKFPDGFWLGEQLVCWQAGTTPWNIFPVISLYLMGEVTNQSFRITILPQQYLRPVEDVATSQDDCYKFAISQSSTGTVMGAVIMEGFYVVFDRARKRIGFAVSACHVHDEFRTAAVEGPFVTLDMEDCGYNIPQTDESTLMTIAY
Relative rates of hydrolysis (relative to SEQ ID NO: 257) [1]: 17
Relative rates of hydrolysis (relative to SEQ ID NO: 257) [2]: 30
Relative rates of hydrolysis (relative to SEQ ID NO: 257) [3]: 17
Relative rates of hydrolysis (relative to SEQ ID NO: 257) [4]: 60
Relative rates of hydrolysis (relative to SEQ ID NO: 257) [5]: 10
depletion of full length peptide substrate (LC/MS) [5]: most rapidly hydrolyzed by β-secretase (P1′=Glu and P1′=Ala)
formation of C-terminal cleavage products (LC/MS) [5]: more rapid and comparable rates of formation of the products represented by P1′=Ala and P1′=Glu
Relative rates of hydrolysis (relative to SEQ ID NO: 257) [6]: 1
depletion of full length peptide substrate (LC/MS) [6]: one intermediate sequence (P1′=Asp-the residue normally present in Swedish mutant APP)
formation of C-terminal cleavage products (LC/MS) [6]: the P1′=Asp product shows formation consistent with this residue being less conducive to β-secretase hydrolysis than either Glu or Ala
depletion of full length peptide substrate (LC/MS) [7]: most rapidly hydrolyzed by β-secretase (P1′=Glu and P1′=Ala)
formation of C-terminal cleavage products (LC/MS) [7]: more rapid and comparable rates of formation of the products represented by P1′=Ala and P1′=Glu
depletion of full length peptide substrate (LC/MS) [8]: two peptides that were not cleaved by β-secretase (P1′=Gly and P1′=Pro)
depletion of full length peptide substrate (LC/MS) [9]: two peptides that were not cleaved by β-secretase (P1′=Gly and P1′=Pro)
